From paper PMC6881172, “Allosteric modulation of nucleoporin assemblies by intrinsically disordered regions” (Science Advances, 2019)
“And” between values parts separate entries of the source, which are not always exact repeats. Identical values can stand only once. Values belong to the molecule of their own block, whether it stands above or below them.

B1: Nup53 fragment 53CTD (domain or fragment)
chain: RNAEFKVSKNSTSFKNPRRLEIKDGRSLFLRNRGKIHS
B3: Nup53 53core (near-intact Nup53 construct encompassing the N- and C-terminal IDRs and the RRM domain) (domain or fragment)
chain: SDLGTVVFDSNEAPPKTSLADWQKEDGIFSSKTDNIEDPNLSSNITFDGKPTATPSPFRPLEKTSRILNFFDKNTKTTPNTASSEASAGSKEGASTNWDDHAIIIFGYPETIANSIILHFANFGEILEDFRVIKDFKKLNSKNMSKSPSLTAQKYPIYTGDGWVKLTYKSELSKSRALQENGIIMNGTLIGCVSYSPAALKQLASLKKSEEIINNKTSSQTSLSSKDLSNYRKTEGIFEKAKAKAVTSKVRNAEFKVSKNSTSFKNPRRLEIKDGRSLFLRNRGKIHS

What was measured:
[1] = molecular target: human Nup35 RRM domain (human); test: SEC-MALS; human Nup35 RRM domain at 15 mg/ml on Superdex 200 10/300 GL in the ITC binding buffer, room temperature
Kap121 (full-length) [2] = molecular target: T1, Kap121 (full-length) (Saccharomyces cerevisiae, UniProt P32337 1-1089); test: ITC; single titrations, single-site 1:1 binding model where fitted; 20 mM Hepes pH 7.5, 150 mM NaCl, 0.5 mM TCEP; 15°C; Kap121 150 μM with Nup53 fragments 15 μM; details: both partners purified
T1 construct: Kap121 (karyopherin), Saccharomyces cerevisiae, full-length; source: E. coli BL21-CodonPlus(DE3)-RIL, purified (HisTrap HP, TEV cleavage, HiTrap Q, Superdex 200); not shown: SUMO-His6, N-terminal, cleaved
T1 sequence (looked up): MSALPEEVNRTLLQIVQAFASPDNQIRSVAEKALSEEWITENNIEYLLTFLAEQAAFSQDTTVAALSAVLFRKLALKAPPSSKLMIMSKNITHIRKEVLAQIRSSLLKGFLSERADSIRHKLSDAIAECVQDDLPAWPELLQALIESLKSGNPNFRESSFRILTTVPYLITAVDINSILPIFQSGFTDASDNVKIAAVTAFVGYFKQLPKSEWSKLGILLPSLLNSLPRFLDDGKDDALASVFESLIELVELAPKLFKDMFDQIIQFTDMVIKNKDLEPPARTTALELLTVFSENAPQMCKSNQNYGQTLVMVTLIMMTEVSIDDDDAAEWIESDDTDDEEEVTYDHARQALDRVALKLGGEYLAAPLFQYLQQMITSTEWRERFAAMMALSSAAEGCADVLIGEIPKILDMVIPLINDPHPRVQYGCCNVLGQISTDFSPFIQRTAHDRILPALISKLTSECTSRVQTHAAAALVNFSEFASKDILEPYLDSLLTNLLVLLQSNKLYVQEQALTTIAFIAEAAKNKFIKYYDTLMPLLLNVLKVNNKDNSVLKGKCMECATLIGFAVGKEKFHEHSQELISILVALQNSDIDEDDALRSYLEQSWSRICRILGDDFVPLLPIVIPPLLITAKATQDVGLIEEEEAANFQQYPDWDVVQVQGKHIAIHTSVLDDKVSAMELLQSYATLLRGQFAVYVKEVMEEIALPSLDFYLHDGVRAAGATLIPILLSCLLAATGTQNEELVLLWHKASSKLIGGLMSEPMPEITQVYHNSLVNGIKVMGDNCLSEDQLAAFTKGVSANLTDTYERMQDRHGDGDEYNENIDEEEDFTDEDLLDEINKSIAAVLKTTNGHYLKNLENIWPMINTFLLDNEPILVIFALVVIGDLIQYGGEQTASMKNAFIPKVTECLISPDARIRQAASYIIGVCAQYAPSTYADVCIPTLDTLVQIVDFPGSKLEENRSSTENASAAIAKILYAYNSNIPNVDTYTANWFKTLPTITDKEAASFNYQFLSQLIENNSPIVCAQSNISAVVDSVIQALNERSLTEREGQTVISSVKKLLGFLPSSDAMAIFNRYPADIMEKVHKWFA

[3] = molecular target: T2, Kap121 (full-length) (Saccharomyces cerevisiae), P32337; test: ITC; 53C·Kap121 forward and reverse titrations at various protein concentrations, global analysis with a two-mode binding model (1:1 and 2:1 53C:Kap121); 20 mM Hepes pH 7.5, 150 mM NaCl, 0.5 mM TCEP; 15°C
T2 chain: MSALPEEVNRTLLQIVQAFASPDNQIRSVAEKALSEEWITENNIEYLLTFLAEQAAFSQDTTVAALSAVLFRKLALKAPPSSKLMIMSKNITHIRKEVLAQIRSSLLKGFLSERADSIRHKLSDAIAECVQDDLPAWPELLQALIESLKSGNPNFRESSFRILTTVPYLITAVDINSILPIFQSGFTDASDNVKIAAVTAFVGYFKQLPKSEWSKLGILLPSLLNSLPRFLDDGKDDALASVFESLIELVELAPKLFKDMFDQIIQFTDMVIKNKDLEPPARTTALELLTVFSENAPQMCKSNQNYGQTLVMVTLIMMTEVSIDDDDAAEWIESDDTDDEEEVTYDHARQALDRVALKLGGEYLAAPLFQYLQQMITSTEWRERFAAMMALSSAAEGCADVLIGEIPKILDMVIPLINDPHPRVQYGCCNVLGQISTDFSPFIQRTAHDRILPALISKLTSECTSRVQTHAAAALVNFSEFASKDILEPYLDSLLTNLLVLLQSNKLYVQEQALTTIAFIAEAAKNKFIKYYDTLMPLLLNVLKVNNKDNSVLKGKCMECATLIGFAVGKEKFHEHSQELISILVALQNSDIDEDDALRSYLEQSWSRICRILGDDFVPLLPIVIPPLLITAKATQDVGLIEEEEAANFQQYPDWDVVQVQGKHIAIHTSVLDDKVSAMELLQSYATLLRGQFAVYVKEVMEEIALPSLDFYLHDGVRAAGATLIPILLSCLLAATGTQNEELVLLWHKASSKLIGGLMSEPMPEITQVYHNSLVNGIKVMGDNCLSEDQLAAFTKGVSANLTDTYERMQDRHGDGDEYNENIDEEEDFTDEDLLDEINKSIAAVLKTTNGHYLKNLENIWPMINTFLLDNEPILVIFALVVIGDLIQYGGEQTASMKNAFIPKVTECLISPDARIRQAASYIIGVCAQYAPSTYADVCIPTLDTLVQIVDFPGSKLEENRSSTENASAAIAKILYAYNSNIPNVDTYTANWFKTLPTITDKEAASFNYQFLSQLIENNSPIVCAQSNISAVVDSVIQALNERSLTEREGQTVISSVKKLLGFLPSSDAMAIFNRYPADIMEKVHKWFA

[4] = molecular target: the molecule itself; test: ITC; dimer to monomers: concentrated 53core injected in 2-μl increments into buffer, three protein concentrations, monomer-dimer equilibrium model; constant printed for 2A ↔ A2; 15°C
[5] = molecular target: the molecule itself; test: as above; remark: listed apart in the source
Kap121 (full-length) [6] = molecular target: T1, Kap121 (full-length); test: ITC; forward and reverse titrations with Kap121 at various protein concentrations, global analysis with a multiple-equilibrium model (53core dimerization, monomer constants fixed at the 53C values); 15°C; details: both partners purified
[7] = molecular target: B3; test: ITC; single titrations, single-site 1:1 binding model where fitted; 20 mM Hepes pH 7.5, 150 mM NaCl, 0.5 mM TCEP; 15°C; Kap121 150 μM with Nup53 fragments 15 μM; details: both partners purified
[8] = molecular target: T3, Nup53 fragment 53NTD (N-terminal IDR) (Saccharomyces cerevisiae); test: as above; details: both partners purified
T3 chain: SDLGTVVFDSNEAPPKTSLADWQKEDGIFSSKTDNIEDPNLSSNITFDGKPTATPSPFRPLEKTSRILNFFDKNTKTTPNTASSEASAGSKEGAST

[9] = molecular target: T4, 53core·Kap121 complex (stoichiometric 53core:Kap121 mixture) (Saccharomyces cerevisiae, UniProt Q03790 1-475; P32337 1-1089); test: ITC; Nic96 titrations into 53core:Kap121 mixtures, global analysis with a multiple-equilibrium model that separates monomeric and dimeric 53core·Kap121 complexes; 15°C; details: both partners purified
[10] = molecular target: 53core·HsKapβ1 complex (stoichiometric 53core:HsKapβ1 mixture) (Saccharomyces cerevisiae | human, UniProt Q03790 1-475; Q14974 1-876); test: ITC; Nic96 titrated into stoichiometric 53core:Kap121 or 53core:HsKapβ1 mixtures; single-site 1:1 model; apparent constants; 15°C; details: both partners purified
[11] = molecular target: T4, 53core·Kap121 complex (stoichiometric …); test: as above; details: both partners purified
Nup53 fragment 53CTD = molecular target: B1; test: ITC; single titrations, single-site 1:1 binding model where fitted; 20 mM Hepes pH 7.5, 150 mM NaCl, 0.5 mM TCEP; 15°C; Kap121 150 μM with Nup53 fragments 15 μM; details: both partners purified

Chain of 53core·HsKapβ1 complex (stoichiometric 53core:HsKapβ1 mixture) (Q14974 1-442, one chain of several): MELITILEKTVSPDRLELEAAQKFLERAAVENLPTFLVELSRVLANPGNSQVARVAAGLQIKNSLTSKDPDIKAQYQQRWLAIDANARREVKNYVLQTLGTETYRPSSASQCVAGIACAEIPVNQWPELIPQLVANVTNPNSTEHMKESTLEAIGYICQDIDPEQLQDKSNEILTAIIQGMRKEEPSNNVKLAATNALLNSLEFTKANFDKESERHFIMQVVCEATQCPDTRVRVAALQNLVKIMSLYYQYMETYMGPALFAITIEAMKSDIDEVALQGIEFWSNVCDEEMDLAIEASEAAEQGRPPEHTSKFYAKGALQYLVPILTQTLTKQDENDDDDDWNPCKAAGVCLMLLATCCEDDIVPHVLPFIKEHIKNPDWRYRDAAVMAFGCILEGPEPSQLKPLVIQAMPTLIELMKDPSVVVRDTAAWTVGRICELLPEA

Molecule: B1
Ka (Kap121 (full-length) [2]): 210000 M⁻¹
fold weaker than the canonical NLS peptide (Kap121 (full-length) [2]): ~45 fold
stoichiometry N (Kap121 (full-length) [2]): 1

Molecule: B3
Ka [4]: 10000 M⁻¹
dH [4]: 6.5 kcal/mol
stoichiometry N [5]: 2
KA of the 53core dimer with one Kap121 (A2 + B ↔ A2B) (Kap121 (full-length) [6]): 5.6e+07 M⁻¹
dH of A2 + 2B ↔ A2B2 (Kap121 (full-length) [6]): -1.3 kcal/mol
dH of A2 + B ↔ A2B (Kap121 (full-length) [6]): 16.3 kcal/mol

B4: Nic96 fragment (domain or fragment)
chain: GNNILNSNESRLNVNENNILREKFENYARIVFQFNNSRQANGNFDIANEFISILSSANGTRNAQLLESWKILESMKSKDINIVEVGKQYLEQQFLQYTDNLYKKNMNEGLATNVNKIKSFIDTKLKKADKSWKISNLTVINGVPIWALIFYLLRAGLIKEALQVLVENKANIKKVEQSFLTYFKAYASSKDHGLPVEYSTKLHTEYNQHIKSSLDGDPYRLAVYKLIGRCDLSRKNIPAVTLSIEDWLWMHLMLIKEKDAENDPVYERYSLEDFQNIIISYGPSRFSNYYLQTLLLSGLYGLAIDYTYTFSEMDAVHLAIGLASLKLFKIDSSTRLTKKPKRDIRFANILANYTKSFRYSDPRVAVEYLVLITLNEGPTDVELCHEALRELVLETKEFTVLLGKIGRDGARIPGVIEERQPLLHVRDEKEFLHTITEQAARRADEDGRIYDSILLYQLAEEYDIVITLVNSLLSDTLSASDLDQPLVGPDDNSETNPVLLARRMASIYFDNAGISRQIHVKNKEICMLLLNISSIRELYFNKQWQETLSQMELLDLLPFSDELSARKKAQDFSNLDDNIVKNIPNLLIITLSCISNMIHILNESKYQSSTKGQQIDSLKNVARQCMIYAGMIQYRMPRETYSTLINIDVSL
Ka [7]: 990000 M⁻¹
dH [7]: -4.4 kcal/mol
Ka [8]: 700000 M⁻¹
stoichiometry N [8]: 1
KA for the dimeric 53core·Kap121 complexes (A2Bi + C ↔ A2BiC) [9]: 120000 M⁻¹
KA for the monomeric 53core·Kap121 complex (AB + C ↔ ABC) [9]: 200000 M⁻¹
dH for the dimeric 53core·Kap121 complexes (A2Bi + C ↔ A2BiC) [9]: -2.5 kcal/mol
dH for the monomeric 53core·Kap121 complex (AB + C ↔ ABC) [9]: -6.7 kcal/mol
Ka [10]: 100000 M⁻¹
dH [10]: -5.1 kcal/mol
Ka [11]: 130000 M⁻¹
dH [11]: -5.2 kcal/mol

The remaining lines, values ahead:

stoichiometry N [1]: 2
Molecule: human Nup35 RRM domain (domain or fragment)

K of the 2:1 mode (2A + B ↔ A2*B) [3]: 1.9e+11 M^-2
KA of the 1:1 mode (A + B ↔ AB) [3]: 4.2e+06 M⁻¹
KA per IDR binding (square root of the 2:1 constant) [3]: 440000 M⁻¹
dH of the 1:1 mode (A + B ↔ AB) [3]: -2.7 kcal/mol
dH of the 2:1 mode (2A + B ↔ A2*B) [3]: 4.2 kcal/mol
stoichiometry N [3]: 2 and 1
B2: Nup53 C-terminal IDR (53C) (domain or fragment)
chain: KKSEEIINNKTSSQTSLSSKDLSNYRKTEGIFEKAKAKAVTSKVRNAEFKVSKNSTSFKNPRRLEIKDGRSLFLRNRGKIHS
modifications: not checked

Ka [7]: 1.1e+06 M⁻¹
dH [7]: -10.1 kcal/mol
Ka (Nup53 fragment 53CTD): 1.6e+06 M⁻¹
stoichiometry N (Nup53 fragment 53CTD): 1
B5: Nup157 fragment 157N (domain or fragment)
chain: MYSTPLKKRIDYDRETFTASASLGGNRLRNRPRDDQNNGKPNLSSRSFLSERKTRKDVLNKYGEAGNTIESELRDVTTHVKISGLTSSEPLQLASEFVQDLSFRDRNTPILDNPDYYSKGLDYNFSDEVGGLGAFTPFQRQQVTNIPDEVLSQVSNTEIKSDMGIFLELNYCWITSDNKLILWNINNSSEYHCIDEIEHTILKVKLVKPSPNTFVSSVENLLIVATLFDIYILTISFNDRTHELNIFNTGLKVNVTGFNVSNIISYERTGQIFFTGATDGVNVWELQYNCSENLFNSKSNKICLTKSNLANLLPTKLIPSIPGGKLIQKVLEGDAGTEEETISQLEVDQSRGVLHTLSTKSIVRSYLITSNGLVGPVLIDAAHIRRGMNALGVKNSPLLSNRAFKIAKIVSISMCENNDLFLAVITTTGVRLYFKGSISRRSIGSLKLDSVKFPPTSISSSLEQNKSFIIGHHPLNTHDTGPLSTQKASSTYINTTCASTIISPGIYFTCVRKRANSGELSKGITNKALLENKEEHKLYVSAPDYGILKNYGKYVENTALLDTTDEIKEIVPLTRSFNYTSTPQGYANVFASQYSAEPLKVAVLTSNALEIYCYRTPDEVFESLIENPLPFIHSYGLSEACSTALYLACKFNKSEHIKSSALAFFSAGIPGVVEIKPKSSRESGSVPPISQNLFDKSGECDGIVLSPRFYGSALLITRLFSQIWEERVFVFKRASKTEKMDAFGISITRPQVEYYLSSISVLADFFNIHRPSFVSFVPPKGSNAITASDAESIAMNALILLINSIKDALSLINVFYEDIDAFKSLLNTLMGAGGVYDSKTREYFFDLKFHDLFTPNAKTKQLIKEILIEVVNANIASGTSADYIVNVLKERFG
